Laboratory results published in patent publication US20190241654A1 (published 2019).
Several values for one entry are separate records, joined by “and”; a condition that tells them apart may be missing. Equal entries are not always repeated.

B1: Ab356/Ab1122 (antibody, V domains shown)
VH: QMQLVQSGAEVKKPGSSVKVSCKASGFNIKDYYLHWVRQAPGKGLEWMGWIDPDQGDTEYAQKFQGRVTITRDRSTSTAYMELRSLRAEDTAVYYCNAAYGSSSYPMDYWGQGTTVTVSS
VL: NIQMTQSPSSLSASVGDRVTITCRASQDIHRYLSWFQQKPGKVPKHLIYRYERFVDGVPSRFSGSGSGTEFTLTISSLQPEDFATYYCLQYDEFPYTFGGGTKVEIK
notes: FR and CDR L2 variant; Label printed HC first; r445 used; also called HC Ab356 / LC Ab1122
B2: Ab495/Ab356 (antibody, V domains shown)
VH: QMQLVQSGAEVKKPGSSVKVSCKASGFNIKDYYLHWVRQAPGKGLEWMGWIDPDQGDTEYAQKFQGRVTITRDRSTSTAYMELRSLRAEDTAVYYCNAAYGSSSYPMDYWGQGTTVTVSS
VL: NIQMTQSPSSLSASVGDRVTITCKASQDIHRYLSWYQQKPGKAPKHLIYRANRLVSGVPSRFSGSGSGTEFTLTISSLQPEDFATYYCLQYDEFPYTFGGGTKVEIK
notes: also called LC Ab495 / HC Ab356
B3: Ab356/Ab1121 (antibody, V domains shown)
VH: QMQLVQSGAEVKKPGSSVKVSCKASGFNIKDYYLHWVRQAPGKGLEWMGWIDPDQGDTEYAQKFQGRVTITRDRSTSTAYMELRSLRAEDTAVYYCNAAYGSSSYPMDYWGQGTTVTVSS
VL: NIQMTQSPSSLSASVGDRVTITCRASQDIHRYLSWFQQKPGKVPKHLIYRYIRFVDGVPSRFSGSGSGTEFTLTISSLQPEDFATYYCLQYDEFPYTFGGGTKVEIK
notes: FR and CDR L2 variant; Label printed HC first; the entry in numeric order (r442) is used; also called HC Ab356 / LC Ab1121
B4: Ab480/Ab1127 (antibody, V domains shown)
VH: QMQLVQSGAEVKKPGSSVKVSCKASGFNIKDYYLHWVRQAPGKGLEWMGWIDPDQGDTEYAQKFQGRVTITRDRSTSTAYMELRSLRAEDTAVYYCNAAYGSSSYPMDYWGQGTLVTVSS
VL: NIQMTQSPSSLSASVGDRVTITCRASQDIHRYLSWFQQKPGKVPKHLIYRESRFVDGVPSRFSGSGSGTEFTLTISSLQPEDFATYYCLQYDEFPYTFGGGTKVEIK
notes: FR and CDR L2 variant; Label printed HC first; r460 used; also called HC Ab480 / LC Ab1127
B5: Ab1119/Ab387 (antibody, V domains shown)
VH: QMQLVQSGAEVKKPGSSVKVSCKASGFNIKDYYLHWVRQAPGKGLEWMGWIDPDQGDTEYAQKFQGRVTITRDRSTSTAYMELRSLRSEDTAVYYCNAAYGSSSYPMDYWGQGTLVTVSS
VL: NIQMTQSPSSLSASVGDRVTITCRASQDIHRYLSWFQQKPGKVPKHLIYRANRLVSGVPSRFSGSGSGTEFTLTISSLQPEDFATYYCLQYDEFPYTFGGGTKVEIK
notes: Variant of AbParental; also called LC Ab1119 / HC Ab387
B6: Ab1119/Ab170 (antibody, V domains shown)
VH: QMQLVQSGAEVKKPGSSVKVSCKASGFNIKDYYLHWVRQAPGKGLEWMGWIDPDQGDTEYAQKFQGRVTITRDRSTSTAYMELRSLRSEDTAVYYCNAAYGSSSYPMDYWGQGTTVTVSS
VL: NIQMTQSPSSLSASVGDRVTITCRASQDIHRYLSWFQQKPGKVPKHLIYRANRLVSGVPSRFSGSGSGTEFTLTISSLQPEDFATYYCLQYDEFPYTFGGGTKVEIK
notes: Variant of AbParental; also called LC Ab1119 / HC Ab170
B7: Ab495/Ab480 (antibody, V domains shown)
VH: QMQLVQSGAEVKKPGSSVKVSCKASGFNIKDYYLHWVRQAPGKGLEWMGWIDPDQGDTEYAQKFQGRVTITRDRSTSTAYMELRSLRAEDTAVYYCNAAYGSSSYPMDYWGQGTLVTVSS
VL: NIQMTQSPSSLSASVGDRVTITCKASQDIHRYLSWYQQKPGKAPKHLIYRANRLVSGVPSRFSGSGSGTEFTLTISSLQPEDFATYYCLQYDEFPYTFGGGTKVEIK
notes: also called LC Ab495 / HC Ab480
B8: Ab480/Ab1121 (antibody, V domains shown)
VH: QMQLVQSGAEVKKPGSSVKVSCKASGFNIKDYYLHWVRQAPGKGLEWMGWIDPDQGDTEYAQKFQGRVTITRDRSTSTAYMELRSLRAEDTAVYYCNAAYGSSSYPMDYWGQGTLVTVSS
VL: NIQMTQSPSSLSASVGDRVTITCRASQDIHRYLSWFQQKPGKVPKHLIYRYIRFVDGVPSRFSGSGSGTEFTLTISSLQPEDFATYYCLQYDEFPYTFGGGTKVEIK
notes: FR and CDR L2 variant; Label printed HC first; r442 used; also called HC Ab480 / LC Ab1121
B9: Ab356/Ab1120 (antibody, V domains shown)
VH: QMQLVQSGAEVKKPGSSVKVSCKASGFNIKDYYLHWVRQAPGKGLEWMGWIDPDQGDTEYAQKFQGRVTITRDRSTSTAYMELRSLRAEDTAVYYCNAAYGSSSYPMDYWGQGTTVTVSS
VL: NIQMTQSPSSLSASVGDRVTITCRASQDIHRYLSWFQQKPGKVPKHLIYRYVRFVDGVPSRFSGSGSGTEFTLTISSLQPEDFATYYCLQYDEFPYTFGGGTKVEIK
notes: FR and CDR L2 variant; also called HC Ab356 / LC Ab1120

Molecular target: T1, recombinant extracellular domain of CD47 (UniProt Q08722 19-139, limits assumed)
T1 construct: extracellular domain; Analyte flowed over the captured antibodies in SPR; also called CD47-ECD
T1 sequence (Q08722 19-139 limits assumed): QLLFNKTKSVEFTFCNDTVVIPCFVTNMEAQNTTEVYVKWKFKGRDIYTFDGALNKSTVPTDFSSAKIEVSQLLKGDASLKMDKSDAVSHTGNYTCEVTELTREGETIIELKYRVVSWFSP
Assay: SPR; antibody captured on anti-human Fc, CD47-ECD flowed 0-100 nM; 1:1 Langmuir
Experimental: The binding kinetics of anti-CD47 antibodies to the recombinant extracellular domain of CD47 were determined by using surface Plasmon resonance (SPR, MASS-1, Sierra Sensors; T200, Biacore, GE Healthcare Life Sciences). Anti-human Fc (P/N: BR-1008-39 (GE Healthcare Life Sciences)) was immobilized on a High Capacity Amine chip (P/N: SPR-AS-HCA, Sierra sensors) or CM5-S Chip (GE Healthcare Life Sciences). CD47 antibodies were captured on Human IgG FC and CD47-ECD was flowed over the surface at various concentrations ranging from zero (for double referencing) to 100 nM. In order to determine KD's, antibodies were ranked using a 1:1 Langmuir model.

**Q.** What does the source list for B1?
**A.** Kd: 77.9 nM; koff: 0.00411 s⁻¹; kon: 22800 M⁻¹ s⁻¹

**Q.** With B2 as the binder, how does the Kd read?
**A.** The Kd was 1.36 nM.

**Q.** What about the koff of the same binder?
**A.** Its koff is 0.00426 s⁻¹.

**Q.** What about the kon of the same binder?
**A.** The kon was 3.13e+06 M⁻¹ s⁻¹.

**Q.** B3 was tested. Which Kd did it give?
**A.** The Kd was 1.08 nM.

**Q.** What about the koff of the same binder?
**A.** Its koff is 0.00272 s⁻¹.

**Q.** And the kon?
**A.** Its kon is 2.53e+06 M⁻¹ s⁻¹.

**Q.** B4 was tested. Which Kd did it give?
**A.** Its Kd is 2.42 nM.

**Q.** And the koff?
**A.** The koff was 0.00622 s⁻¹.

**Q.** What about the kon of the same binder?
**A.** The kon was 2.57e+06 M⁻¹ s⁻¹.

**Q.** Which Kd does the source give for B5 here?
**A.** Its Kd is 0.556 nM and 0.529 nM.

**Q.** And the koff?
**A.** The koff was 0.00571 s⁻¹ and 0.00552 s⁻¹.

**Q.** What about the kon of the same binder?
**A.** Its kon is 1.03e+07 M⁻¹ s⁻¹ and 1.04e+07 M⁻¹ s⁻¹.

**Q.** For B6, which Kd is on record?
**A.** Its Kd is 0.562 nM.

**Q.** What about the koff of the same binder?
**A.** Its koff is 0.00583 s⁻¹.

**Q.** What about the kon of the same binder?
**A.** The kon was 1.04e+07 M⁻¹ s⁻¹.

**Q.** For B7, which Kd is on record?
**A.** The Kd was 1.32 nM.

**Q.** And the koff?
**A.** The koff was 0.00434 s⁻¹.

**Q.** And the kon?
**A.** The kon was 3.29e+06 M⁻¹ s⁻¹.

**Q.** With B8 as the binder, how does the Kd read?
**A.** Its Kd is 1.14 nM.

**Q.** What about the koff of the same binder?
**A.** The koff was 0.00303 s⁻¹.

**Q.** What about the kon of the same binder?
**A.** The kon was 2.67e+06 M⁻¹ s⁻¹.

**Q.** For B9, which Kd is on record?
**A.** The Kd was 1.02 nM.

**Q.** What about the koff of the same binder?
**A.** The koff was 0.00274 s⁻¹.

**Q.** And the kon?
**A.** Its kon is 2.69e+06 M⁻¹ s⁻¹.
